Reference: IntAct's records for PubMed 19207211

B1: Oxysterol-binding protein-related protein 3A (Arabidopsis thaliana (Mouse-ear cress)), Q9LZM1 (parent)
chain: MASNDPKNGGGFFASLASSITNFGSAMSKSVNGLMGYEGLEVINPEGSTDDAEEEAGRGRWKQEERDGYWKMMQKYIGSDVTSMVTLPVIIFEPMTMLQKMAELMEYSYLLDMADKTEDPYMRMVYASSWAISVYYAYQRTWKPFNPILGETYEMTNHNGINFIAEQVCHHPPMSAGHAENEHFAYDCTSKLKTKFLGNSIDVYPVGRTRVTLKRDGVVLDLVPPLTKVHNLIFGRTWVDSPGEMVMTNLTTGDKVVLYFQPCGWFGSGRYEVDGYVYNSAEEPKMLMTGKWNESLSYQPCDAEGEPLPGTELKEVWKVAEAPKNDKYQYTHFAHKINSFDTAPKKLLSSDSRLRPDRYALEMGDMSKSGFEKSSLEDRQRAEKKSREEKGQKFAPKWFDETEEVTPTPWGDLEVYQFNGKYSVHRATAENSEDTTDVKLTQFNPWQFQDLSA
partner: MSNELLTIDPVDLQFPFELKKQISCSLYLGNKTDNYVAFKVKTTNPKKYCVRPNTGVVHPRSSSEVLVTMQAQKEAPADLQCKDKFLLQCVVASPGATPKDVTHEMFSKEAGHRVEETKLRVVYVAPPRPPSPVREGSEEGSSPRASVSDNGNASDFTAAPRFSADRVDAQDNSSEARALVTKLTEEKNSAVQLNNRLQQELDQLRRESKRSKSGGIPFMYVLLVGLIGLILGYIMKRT

Variants of: B1
Settings: with vap12_arath PVA12, Q9SHC8

Row | Variant | effect of a mutation on the interaction
1 | W398A;F399A;D400G;E401G;E403G | disrupting interaction
